Test results: paper PMC6930800, “Coexpression of CCR7 and CXCR4 During B Cell Development Controls CXCR4 Responsiveness and Bone Marrow Homing” (Frontiers in Immunology, 2019)
Blank lines part the entries; values can stand above or below the binder they belong to.

What was measured:
[1] = target: T1, CCR7 expressed on CHO-K1 cells (UniProt P32248 25-378); experiment: radioligand binding; competition on CHO-K1 cells co-expressing CXCR4 and CCR7; tracer 0.1 nM 125I-CCL19, increasing concentrations of unlabelled competitor; non-specific binding defined with 300 nM competitor; conditions: one partner purified
T1 construct: chemokine receptor CCR7, recombinant, on CHO-K1 cells; source: CHO-K1 cells expressing CCR7 only or co-expressing CXCR4 and CCR7
T1 sequence (looked up): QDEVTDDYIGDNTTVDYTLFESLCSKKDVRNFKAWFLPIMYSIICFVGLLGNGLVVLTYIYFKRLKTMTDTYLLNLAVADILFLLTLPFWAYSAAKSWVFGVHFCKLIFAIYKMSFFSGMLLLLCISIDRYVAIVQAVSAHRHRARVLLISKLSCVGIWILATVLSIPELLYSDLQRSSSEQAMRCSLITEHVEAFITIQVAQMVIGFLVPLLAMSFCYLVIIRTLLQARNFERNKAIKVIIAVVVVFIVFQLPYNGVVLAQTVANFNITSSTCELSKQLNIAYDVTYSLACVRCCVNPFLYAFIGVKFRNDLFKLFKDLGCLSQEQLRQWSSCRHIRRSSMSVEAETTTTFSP

[2] = target: T1, CCR7 expressed on CHO-K1 cells; experiment: radioligand binding; competition on CHO-K1 cells expressing CCR7 only; tracer 0.1 nM 125I-CCL19, increasing concentrations of unlabelled competitor; non-specific binding defined with 300 nM competitor; conditions: one partner purified

IC50 [1]: 1.7 nM
IC50 [2]: 1.84 nM
B1: CCL19 (ligand, UniProt Q99731 22-98, looked up)
chain: GTNDAEDCCLSVTQKPIPGYIVRNFHYLLIKDGCRVPAVVFTTLRGRQLCAPPDQPWVERIIQRLQRTSAKMKRRSS
notes: also called unlabeled CCL19

IC50 [1]: 4.2 nM
IC50 [2]: 4.06 nM
B2: CCL21 (ligand, UniProt O00585 24-134, looked up)
chain: SDGGAQDCCLKYSQRKIPAKVVRSYRKQEPSLGCSIPAILFLPRKRSQAELCADPKELWVQQLMQHLDKTPSPQKPAQGCRKDRGASKTGKKGKGSKGCKRTERSQTPKGP
